B1: Protein STE5 (Saccharomyces cerevisiae), P32917 (parent)
chain: MMETPTDNIVSPFHNFGSSTQYSGTLSRTPNQIIELEKPSTLSPLSRGKKWTEKLARFQRSSAKKKRFSPSPISSSTFSFSPKSRVTSSNSSGNEDGNLMNTPSTVSTDYLPQHPHRTSSLPRPNSNLFHASNSNLSRANEPPRAENLSDNIPPKVAPFGYPIQRTSIKKSFLNASCTLCDEPISNRRKGEKIIELACGHLSHQECLIISFGTTSKADVRALFPFCTKCKKDTNKAVQCIPENDELKDILISDFLIHKIPDSELSITPQSRFPPYSPLLPPFGLSYTPVERQTIYSQAPSLNPNLILAAPPKERNQIPQKKSNYTFLHSPLGHRRIPSGANSILADTSVALSANDSISAVSNSVRAKDDETKTTLPLLRSYFIQILLNNFQEELQDWRIDGDYGLLRLVDKLMISKDGQRYIQCWCFLFEDAFVIAEVDNDVDVLEIRLKNLEVFTPIANLRMTTLEASVLKCTLNKQHCADLSDLYIVQNINSDESTTVQKWISGILNQDFVFNEDNITSTLPILPIIKNFSKDVGNGRHETSTFLGLINPNKVVEVGNVHDNDTVIIRRGFTLNSGECSRQSTVDSIQSVLTTISSILSLKREKPDNLAIILQIDFTKLKEEDSLIVVYNSLKALTIKFARLQFCFVDRNNYVLDYGSVLHKIDSLDSISNLKSKSSSTQFSPIWLKNTLYPENIHEHLGIVAVSNSNMEAKKSILFQDYRCFTSFGRRRPNELKIKVGYLNVDYSDKIDELVEASSWTFVLETLCYSFGLSFDEHDDDDEEDNDDSTDNELDNSSGSLSDAESTTTIHIDSPFDNENATANMVNDRNLLTEGEHSNIENLETVASSVQPALIPNIRFSLHSEEEGTNENENENDMPVLLLSDMDKGIDGITRRSSFSSLIESGNNNCPLHMDYI
partner: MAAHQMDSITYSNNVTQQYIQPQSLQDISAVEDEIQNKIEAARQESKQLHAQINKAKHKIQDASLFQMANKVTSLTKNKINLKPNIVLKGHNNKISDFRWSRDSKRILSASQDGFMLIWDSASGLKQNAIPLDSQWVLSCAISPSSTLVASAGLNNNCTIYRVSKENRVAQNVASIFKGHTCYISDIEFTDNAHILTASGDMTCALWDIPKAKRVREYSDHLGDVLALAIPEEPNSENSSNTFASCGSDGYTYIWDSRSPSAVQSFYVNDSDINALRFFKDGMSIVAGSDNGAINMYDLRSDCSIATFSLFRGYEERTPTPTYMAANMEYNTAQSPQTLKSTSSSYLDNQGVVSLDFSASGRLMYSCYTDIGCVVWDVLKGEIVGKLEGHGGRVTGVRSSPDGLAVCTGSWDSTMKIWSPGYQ

Variants of: B1
Conditions: with gbb_yeast STE4, P18851

Variant | effect of a mutation on the interaction
C177A;C180A | disrupting interaction

Source: IntAct's records for PubMed 9311911
